Results reported in US20030091584A1 (AstraZeneca / MedImmune, published 2003).

T1: RSV F glycoprotein (NUF4) (respiratory syncytial virus)
T1 chain 1: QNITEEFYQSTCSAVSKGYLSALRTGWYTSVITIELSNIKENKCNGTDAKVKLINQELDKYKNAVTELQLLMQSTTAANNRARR
T1 chain 2: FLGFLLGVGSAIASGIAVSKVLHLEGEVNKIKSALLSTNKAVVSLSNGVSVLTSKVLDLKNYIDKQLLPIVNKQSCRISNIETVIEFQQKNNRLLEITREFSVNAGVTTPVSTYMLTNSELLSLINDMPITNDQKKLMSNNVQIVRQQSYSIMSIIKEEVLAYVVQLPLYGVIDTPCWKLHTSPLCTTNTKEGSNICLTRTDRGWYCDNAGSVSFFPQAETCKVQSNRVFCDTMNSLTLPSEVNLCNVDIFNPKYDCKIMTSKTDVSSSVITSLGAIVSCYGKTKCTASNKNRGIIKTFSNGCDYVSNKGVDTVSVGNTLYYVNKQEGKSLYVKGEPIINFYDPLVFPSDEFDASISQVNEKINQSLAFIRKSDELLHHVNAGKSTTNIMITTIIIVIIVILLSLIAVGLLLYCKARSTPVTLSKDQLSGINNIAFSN


Columns and labels:
[1] = target: T1, RSV F glycoprotein (NUF4); assay: BIAcore, mAb vs NUF4 (1:1)
[2] = target: T1, RSV F glycoprotein (NUF4); assay: BIAcore, mAb vs NUF4 (2:1)
[3] = target: F protein of wild type RSV A/Long (respiratory syncytial virus strain …, UniProt P12568 26-574); assay: cell-based or functional assay
[4] = target: RSV F protein (immobilized on the BIAcore sensor chip) (respiratory syncytial virus); assay: BIAcore, immobilized F protein;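 further: fab fragments as analytes binding F protein coupled to the chip via EDC/NHS chemistry, with blank surface signal subtracted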

| Binder | Kd [1] [nM] | koff [1] [s⁻¹] | kon [1] [M⁻¹ s⁻¹] | number in parentheses after KD (fold against SYNAGIS = 1) [1] [fold] | Kd [2] [nM] | koff [2] [s⁻¹] | kon [2] [M⁻¹ s⁻¹] | number in parentheses after KD (fold against SYNAGIS = 1) [2] [fold] | Fold Difference (Control IC50) [3] [fold] | Fold Difference (Curve IC50) [3] [fold] | Mean IC50 (Control), RSV microneutralization [3] [µg/mL] | Mean IC50 (Curve), RSV microneutralization [3] [µg/mL] | koff [4] [s⁻¹] | kon [4] [M⁻¹ s⁻¹] |
| --- | --- | --- | --- | --- | --- | --- | --- | --- | --- | --- | --- | --- | --- | --- |
| A1e9 (monoclonal antibody) (antibody, V domains shown, mAb with framework and constant regions of SYNAGIS; also called Ale9) VH: QVTLRESGPALVKPTQTLTLTCTFSGFSLSTPGMSVGWIRQPPGKALEWLADIWWDGKKHYNPSLKDRLTISKDTSKNQVVLKVTNMDPADTATYYCARDMIFNWYFDVWGQGTTVTVSS VL: DIQMTQSPSTLSASVGDRVTITCSLSSRVGYMHWYQQKPGKAPKLLIYDTFKLSSGVPSRFSGSGSGTEFTLTISSLQPDDFATYYCFQGSGYPFTFGGGTKVEIK | 0.69 | 0.000584 | 843000 | 13 | 4.22 | 0.00139 | 329000 | 74 | 8 | 7 | 0.0645 | 0.0625 |  |  |
| A8c7 (Fab fragment) (Fab, V domains shown) VH: QVTLRESGPALVKPTQTLTLTCTFSGFSLSTAGMSVGWIRQPPGKALEWLADIWWDDKKSYNPSLKDRLTISKDTSKNQVVLKVTNMDPADTATYYCARDMIFNWYFDVWGQGTTVTVSS VL: DIQMTQSPSTLSASVGDRVTITCSASSRVGYMHWYQQKPGKAPKLLIYDTRYQSSGVPSRFSGSGSGTEFTLTISSLQPDDFATYYCFQGSGYPFTFGGGTKLEIK |  |  |  |  |  |  |  |  | 34 | 3 | 0.157 | 0.177 |  |  |
| P11d4 (monoclonal antibody) (antibody, V domains shown, mAb with framework and constant regions of SYNAGIS) VH: QVTLRESGPALVKPTQTLTLTCTFSGFSLSTPGMSVGWIRQPPGKALEWLADIWWDGKKHYNPSLKDRLTISKDTSKNQVVLKVTNMDPADTATYYCARDMIFNWYFDVWGQGTTVTVSS VL: DIQMTQSPSTLSASVGDRVTITCSPSSRVGYMHWYQQKPGKAPKLLIYDTMRLASGVPSRFSGSGSGTEFTLTISSLQPDDFATYYCFQGSGYPFTFGGGTKVEIK | 0.85 | 0.000766 | 904000 | 10 | 8.55 | 0.00313 | 366000 | 36 | 19 | 21 | 0.0289 | 0.0217 |  |  |
| A8c7 (monoclonal antibody) (antibody, V domains shown, mAb with framework and constant regions of SYNAGIS) VH: QVTLRESGPALVKPTQTLTLTCTFSGFSLSTAGMSVGWIRQPPGKALEWLADIWWDDKKSYNPSLKDRLTISKDTSKNQVVLKVTNMDPADTATYYCARDMIFNWYFDVWGQGTTVTVSS VL: DIQMTQSPSTLSASVGDRVTITCSASSRVGYMHWYQQKPGKAPKLLIYDTRYQSSGVPSRFSGSGSGTEFTLTISSLQPDDFATYYCFQGSGYPFTFGGGTKLEIK | 0.65 | 0.000535 | 825000 | 13 | 2.65 | 0.00114 | 430000 | 118 | 14 | 13 | 0.0383 | 0.0337 |  |  |
| 1X-493L1FR (Fab fragment) (Fab, V domains shown) VH: QVTLRESGPALVKPTQTLTLTCTFSGFSLSTSGMSVGWIRQPPGKALEWLADIWWDDKKDYNPSLKSRLTISKDTSKNQVVLKVTNMDPADTATYYCARSMITNWYFDVWGAGTTVTVSS VL: DIQMTQSPSTLSASVGDRVTITCSASSSVGYMHWYQQKPGKAPKLLIYDTSKLASGVPSRFSGSGSGTEFTLTISSLQPDDFATYYCFQGSGYPFTFGGGTKLEIK |  |  |  |  |  |  |  |  |  |  |  |  | 0.00065 | 185000 |
| A1h5 (Fab fragment) (Fab, V domains shown) VH: QVTLRESGPALVKPTQTLTLTCTFSGFSLSTPGMSVGWIRQPPGKALEWLADIWWDGKKHYNPSLKDRLTISKDTSKNQVVLKVTNMDPADTATYYCARDMIFNWYFDVWGQGTTVTVSS VL: DIQMTQSPSTLSASVGDRVTITCSLSSSVGYMHWYQQKPGKAPKLLIYDTFFHRSGVPSRFSGSGSGTEFTLTISSLQPDDFATYYCFQGSGYPFTFGGGTKLEIK |  |  |  |  |  |  |  |  | 3 | 2 | 0.176 | 0.194 |  |  |
| A17d4 (Fab fragment) (Fab, V domains shown) VH: QVTLRESGPALVKPTQTLTLTCTFSGFSLSTAGMSVGWIRQPPGKALEWLADIWWDGKKSYNPSLKDRLTISKDTSKNQVVLKVTNMDPADTATYYCARDMIFNFYFDVWGQGTTVTVSS VL: DIQMTQSPSTLSASVGDRVTITCLPSSRVGYMHWYQQKPGKAPKLLIYDTMYQASGVPSRFSGSGSGTEFTLTISSLQPDDFATYYCFQFSGYPFTFGGGTKLEIK |  |  |  |  |  |  |  |  | 31 | 25 | 0.0171 | 0.0179 |  |  |
| A12a6 (monoclonal antibody) (antibody, V domains shown, mAb with framework and constant regions of SYNAGIS) VH: QVTLRESGPALVKPTQTLTLTCTFSGFSLSTAGMSVGWIRQPPGKALEWLADIWWDGKKDYNPSLKDRLTISKDTSKNQVVLKVTNMDPADTATYYCARDMIFNFYFDVWGQGTTVTVSS VL: DIQMTQSPSTLSASVGDRVTITCSASSRVGYMHWYQQKPGKAPKLLIYDTFKLSSGVPSRFSGSGSGTEFTLTISSLQPDDFATYYCFQGSGYPFTFGGGTKVEIK | 0.73 | 0.000291 | 400000 | 12 | 1.87 | 0.000408 | 218000 | 167 | 15 | 13 | 0.0354 | 0.0357 |  |  |
| P12f4 (monoclonal antibody) (antibody, V domains shown, mAb with framework and constant regions of SYNAGIS) VH: QVTLRESGPALVKPTQTLTLTCTFSGFSLSTPGMSVGWIRQPPGKALEWLADIWWDGKKHYNPSLKDRLTISKDTSKNQVVLKVTNMDPADTATYYCARDMIFNFYFDVWGQGTTVTVSS VL: DIQMTQSPSTLSASVGDRVTITCSLSSRVGYMHWYQQKPGKAPKLLIYDTRGLPSGVPSRFSGSGSGTEFTLTISSLQPDDFATYYCFQGSGYPFTFGGGTKVEIK | 0.24 | 0.000229 | 943000 | 36 | 2.33 | 0.000636 | 273000 | 134 | 23 | 19 | 0.0235 | 0.0242 |  |  |
| P12f2 (monoclonal antibody) (antibody, V domains shown, mAb with framework and constant regions of SYNAGIS; also called Pf12) VH: QVTLRESGPALVKPTQTLTLTCTFSGFSLSTPGMSVGWIRQPPGKALEWLADIWWDDKKHYNPSLKDRLTISKDTSKNQVVLKVTNMDPADTATYYCARDMIFNFYFDVWGAGTTVTVSS VL: DIQMTQSPSTLSASVGDRVTITCSLSSRVGYMHWYQQKPGKAPKLLIYDTFYLSSGVPSRFSGSGSGTEFTLTISSLQPDDFATYYCFQGSGYPFTFGGGTKVEIK | 0.33 | 0.000178 | 541000 | 26 | 0.84 | 0.000236 | 282000 | 371 | 24 | 20 | 0.0223 | 0.0231 |  |  |
| A4B4 (Fab fragment) (Fab, V domains shown) VH: QVTLRESGPALVKPTQTLTLTCTFSGFSLSTAGMSVGWIRQPPGKALEWLADIWWDDKKHYNPSLKDRLTISKDTSKNQVVLKVTNMDPADTATYYCARDMIFNFYFDVWGQGTTVTVSS VL: DIQMTQSPSTLSASVGDRVTITCSASSRVGYMHWYQQKPGKAPKLLIYDTFFLDSGVPSRFSGSGSGTEFTLTISSLQPDDFATYYCFQGSGYPFTFGGGTKLEIK |  |  |  |  |  |  |  |  | 13 | 11 | 0.0411 | 0.0414 |  |  |
